± gives the uncertainty stated by the source.
B1: SAM and SH3 domain-containing protein 1, residues 630 to 700; numbered along this chain, O94885 (parent)
chain: GRPPQPKSVEDLLDRINLKEHMPTFLFNGYEDLDTFKLLEEEDLDELNIRDPEHRAVLLTAVELLQEYDSN

Variants of: B1
Test: abundance fitness (aPCA) (normalised: wild type 0, dead -1); higher = more abundant; growth selection in yeast, the domain comes from the species named
Conditions: Homo sapiens

Row | Variant | abundance fitness
1 | GRPPQPKSVEDLLDRINLKEHMPTFLFNGYEDLDTFKLLEECDLDELNIRDPEHRAVLLTAVELLQEYDSN [E42C] | -0.222 ± 0.053
2 | GRPPQPKSVEDLLDRINLKEHMPTFLFNGYEDLDTFKLLEEGDLDELNIRDPEHRAVLLTAVELLQEYDSN [E42G] | 0.013 ± 0.049
3 | GRPPQPKSVEDLLDRINLKEHMPTFLFNGYEDLDTFKLLEESDLDELNIRDPEHRAVLLTAVELLQEYDSN [E42S] | 0.102 ± 0.034
4 | GRPPQPKSVEDLLDRINLKEHMPTFLFNGYEDLDTFKLLEEWDLDELNIRDPEHRAVLLTAVELLQEYDSN [E42W] | -0.618 ± 0.08
5 | GRPPQPKSVEDLLDRINLKEHMPTFLFNGYEDLDTFKLLEEADLDELNIRDPEHRAVLLTAVELLQEYDSN [E42A] | 0.104 ± 0.04
6 | GRPPQPKSVEDLLDRINLKEHMPTFLFNGYEDLDTFKLLEENDLDELNIRDPEHRAVLLTAVELLQEYDSN [E42N] | -0.094 ± 0.046
7 | GRPPQPKSVEDLLDRINLKEHMPTFLFNGYEDLDTFKLLEETDLDELNIRDPEHRAVLLTAVELLQEYDSN [E42T] | 0.035 ± 0.039
8 | GRPPQPKSVEDLLDRINLKEHMPTFLFNGYEDLDTFKLLEEHDLDELNIRDPEHRAVLLTAVELLQEYDSN [E42H] | 0.055 ± 0.041
9 | GRPPQPKSVEDLLDRINLKEHMPTFLFNGYEDLDTFKLLEELDLDELNIRDPEHRAVLLTAVELLQEYDSN [E42L] | -0.6 ± 0.045
10 | GRPPQPKSVEDLLDRINLKEHMPTFLFNGYEDLDTFKLLEEIDLDELNIRDPEHRAVLLTAVELLQEYDSN [E42I] | -0.477 ± 0.055
11 | GRPPQPKSVEDLLDRINLKEHMPTFLFNGYEDLDTFKLLEEYDLDELNIRDPEHRAVLLTAVELLQEYDSN [E42Y] | -0.539 ± 0.056
12 | GRPPQPKSVEDLLDRINLKEHMPTFLFNGYEDLDTFKLLEEKDLDELNIRDPEHRAVLLTAVELLQEYDSN [E42K] | 0.283 ± 0.048
13 | GRPPQPKSVEDLLDRINLKEHMPTFLFNGYEDLDTFKLLEEFDLDELNIRDPEHRAVLLTAVELLQEYDSN [E42F] | -0.743 ± 0.067
14 | GRPPQPKSVEDLLDRINLKEHMPTFLFNGYEDLDTFKLLEEVDLDELNIRDPEHRAVLLTAVELLQEYDSN [E42V] | -0.302 ± 0.046
15 | GRPPQPKSVEDLLDRINLKEHMPTFLFNGYEDLDTFKLLEEPDLDELNIRDPEHRAVLLTAVELLQEYDSN [E42P] | -0.124 ± 0.042
16 | GRPPQPKSVEDLLDRINLKEHMPTFLFNGYEDLDTFKLLEEQDLDELNIRDPEHRAVLLTAVELLQEYDSN [E42Q] | -0.023 ± 0.049
17 | GRPPQPKSVEDLLDRINLKEHMPTFLFNGYEDLDTFKLLEEMDLDELNIRDPEHRAVLLTAVELLQEYDSN [E42M] | -0.476 ± 0.066
18 | GRPPQPKSVEDLLDRINLKEHMPTFLFNGYEDLDTFKLLCEEDLDELNIRDPEHRAVLLTAVELLQEYDSN [E40C] | 0.186 ± 0.042
19 | GRPPQPKSVEDLLDRINLKEHMPTFLFNGYEDLDTFKLLNEEDLDELNIRDPEHRAVLLTAVELLQEYDSN [E40N] | 0.196 ± 0.041

Row | Variant | abundance fitness
20 | GRPPQPKSVEDLLDRINLKEHMPTFLFNGYEDLDTFKLLREEDLDELNIRDPEHRAVLLTAVELLQEYDSN [E40R] | 0.337 ± 0.035
21 | GRPPQPKSVEDLLDRINLKEHMPTFLFNGYEDLDTFKLLMEEDLDELNIRDPEHRAVLLTAVELLQEYDSN [E40M] | -0.246 ± 0.056
22 | GRPPQPKSVEDLLDRINLKEHMPTFLFNGYEDLDTFKLLGEEDLDELNIRDPEHRAVLLTAVELLQEYDSN [E40G] | 0.171 ± 0.044
23 | GRPPQPKSVEDLLDRINLKEHMPTFLFNGYEDLDTFKLLSEEDLDELNIRDPEHRAVLLTAVELLQEYDSN [E40S] | 0.252 ± 0.032
24 | GRPPQPKSVEDLLDRINLKEHMPTFLFNGYEDLDTFKLLVEEDLDELNIRDPEHRAVLLTAVELLQEYDSN [E40V] | -0.088 ± 0.047
25 | GRPPQPKSVEDLLDRINLKEHMPTFLFNGYEDLDTFKLLPEEDLDELNIRDPEHRAVLLTAVELLQEYDSN [E40P] | -0.914 ± 0.075
26 | GRPPQPKSVEDLLDRINLKEHMPTFLFNGYEDLDTFKLLYEEDLDELNIRDPEHRAVLLTAVELLQEYDSN [E40Y] | -0.829 ± 0.069
27 | GRPPQPKSVEDLLDRINLKEHMPTFLFNGYEDLDTFKLLFEEDLDELNIRDPEHRAVLLTAVELLQEYDSN [E40F] | -1.01 ± 0.089
28 | GRPPQPKSVEDLLDRINLKEHMPTFLFNGYEDLDTFKLLIEEDLDELNIRDPEHRAVLLTAVELLQEYDSN [E40I] | -0.431 ± 0.055
29 | GRPPQPKSVEDLLDRINLKEHMPTFLFNGYEDLDTFKLLWEEDLDELNIRDPEHRAVLLTAVELLQEYDSN [E40W] | -0.933 ± 0.098
30 | GRPPQPKSVEDLLDRINLKEHMPTFLFNGYEDLDTFKLLQEEDLDELNIRDPEHRAVLLTAVELLQEYDSN [E40Q] | 0.222 ± 0.049
31 | GRPPQPKSVEDLLDRINLKEHMPTFLFNGYEDLDTFKLLKEEDLDELNIRDPEHRAVLLTAVELLQEYDSN [E40K] | 0.347 ± 0.046
32 | GRPPQPKSVEDLLDRINLKEHMPTFLFNGYEDLDTFKLLDEEDLDELNIRDPEHRAVLLTAVELLQEYDSN [E40D] | 0.011 ± 0.057
33 | GRPPQPKSVEDLLDRINLKEHMPTFLFNGYEDLDTFKLLTEEDLDELNIRDPEHRAVLLTAVELLQEYDSN [E40T] | 0.398 ± 0.035
34 | GRPPQPKSVEDLLDRINLKEHMPTFLFNGYEDLDTFKLLEEERLDELNIRDPEHRAVLLTAVELLQEYDSN [D43R] | -0.385 ± 0.043
35 | GRPPQPKSVEDLLDRINLKEHMPTFLFNGYEDLDTFKLLEEEALDELNIRDPEHRAVLLTAVELLQEYDSN [D43A] | -0.325 ± 0.045
36 | GRPPQPKSVEDLLDRINLKEHMPTFLFNGYEDLDTFKLLEEEILDELNIRDPEHRAVLLTAVELLQEYDSN [D43I] | -0.584 ± 0.061
37 | GRPPQPKSVEDLLDRINLKEHMPTFLFNGYEDLDTFKLLEEEQLDELNIRDPEHRAVLLTAVELLQEYDSN [D43Q] | -0.142 ± 0.041
38 | GRPPQPKSVEDLLDRINLKEHMPTFLFNGYEDLDTFKLLEEEHLDELNIRDPEHRAVLLTAVELLQEYDSN [D43H] | -0.201 ± 0.042
